Values of other authors, collected in US9180102B2, “Methods for fabricating nano and microparticles for drug delivery” (BOARD OF REGENTS, THE UNIVERSITY OF TEXAS SYSTEM, priority 2005, dated 2015).

Target: Cathepsin B (Homo sapiens, UniProt P07858)
Conditions: degradation of peptide spacer by lysosomal protease

Substance: Gly-Phe-Leu-Gly (GFLG; printed: Gly-Phe-Leu-Gly)
- sensitivity of peptide spacer sequence to Cathepsin B: especially sensitive
